Measurements as given in the Human Domainome abundance scans (Beltran et al. 2025).
± gives the uncertainty stated by the source.

B1: Formin-binding protein 4, residues 200 to 261; numbered along this chain, Q8N3X1 (parent)
chain: SGWQYDTQCSLAGVGIEMGDWQEVWDENTGCYYYWNTQTNEVTWELPQYLATQVQGLQHYQP

Variants of: B1
Assay: abundance fitness (aPCA) (normalised: wild type 0, dead -1); higher = more abundant; growth selection in yeast, the domain comes from the species named
Details: Homo sapiens

SGWQYDTQCSLAGVGIEMGDWQEVWDENTGCYYYWNTQTNEVTWELPQYLATQVQGLQHYQI [P62I] and SGWQYDTQCSLAGVGIEMGDWQEVWDENTGCYYYWNTQTNEVTWELPQYLATQVQGLQHYQC [P62C] are within error of each other in abundance fitness: -0.268 ± 0.21 for the first, -0.006 ± 0.2 for the second.

SGWQYDTQCSLAGVGIEMGDWQEVWDENTGCYYYWNTQTNEVTWELPQYLATQVQGLQHYQK [P62K] and SGWQYDTQCSLAGVGIEMGDWQEVWDENTGCYYYWNTQTNEVTWELPQYLATQVQGLQHYQH [P62H] are within error of each other in abundance fitness: 0.194 ± 0.17 for the first, 0.084 ± 0.32 for the second.

Compared with SGWQYDTQCSLAGVGIEMGDWQEVWDENTGCYYYWNTQTNEVTWELPQYLATQVQGLQHYQA [P62A], SGWQYDTQCSLAGVGIEMGDWQEVWDENTGCYYYWNTQTNEVTWELPQYLATQVQGLQHYQE [P62E] is lower in abundance fitness: 0.124 ± 0.11 for the first, -0.469 ± 0.42 for the second.

SGWQYDTQCSLAGVGIEMGDWQEVWDENTGCYYYWNTQTNEVTWELPQYLATQVQGLQHYQG [P62G] and SGWQYDTQCSLAGVGIEMGDWQEVWDENTGCYYYWNTQTNEVTWELPQYLATQVQGLQHYQF [P62F] are within error of each other in abundance fitness: -0.028 ± 0.11 for the first, -0.103 ± 0.26 for the second.

First: SGWQYDTQCSLAGVGIEMGDWQEVWDENTGCYYYWNTQTNEVTWELPQYLATQVQGLQHYWP [Q61W]
Second: SGWQYDTQCSLAGVGIEMGDWQEVWDENTGCYYYWNTQTNEVTWELPQYLATQVQGLQHYDP [Q61D]
The abundance fitness of the first is lower: -0.423 ± 0.1 for the first, -0.034 ± 0.1 for the second.

First: SGWQYDTQCSLAGVGIEMGDWQEVWDENTGCYYYWNTQTNEVTWELPQYLATQVQGLQHYIP [Q61I]
Second: SGWQYDTQCSLAGVGIEMGDWQEVWDENTGCYYYWNTQTNEVTWELPQYLATQVQGLQHYRP [Q61R]
The abundance fitness of the first is lower: -0.299 ± 0.12 for the first, -0.101 ± 0.065 for the second.

SGWQYDTQCSLAGVGIEMGDWQEVWDENTGCYYYWNTQTNEVTWELPQYLATQVQGLQHYMP [Q61M] and SGWQYDTQCSLAGVGIEMGDWQEVWDENTGCYYYWNTQTNEVTWELPQYLATQVQGLQHYYP [Q61Y] are within error of each other in abundance fitness: -0.16 ± 0.093 for the first, -0.287 ± 0.14 for the second.

Compared with SGWQYDTQCSLAGVGIEMGDWQEVWDENTGCYYYWNTQTNEVTWELPQYLATQVQGLQHYCP [Q61C], SGWQYDTQCSLAGVGIEMGDWQEVWDENTGCYYYWNTQTNEVTWELPQYLATQVQGLQHYGP [Q61G] is higher in abundance fitness: -0.203 ± 0.1 for the first, -0.018 ± 0.069 for the second.

First: SGWQYDTQCSLAGVGIEMGDWQEVWDENTGCYYYWNTQTNEVTWELPQYLATQVQGLQHYAP [Q61A]
Second: SGWQYDTQCSLAGVGIEMGDWQEVWDENTGCYYYWNTQTNEVTWELPQYLATQVQGLQHYKP [Q61K]
The abundance fitness of the first is higher: 0.115 ± 0.064 for the first, -0.046 ± 0.093 for the second.

Compared with SGWQYDTQCSLAGVGIEMGDWQEVWDENTGCYYYWNTQTNEVTWELPQYLATQVQGLQHYHP [Q61H], SGWQYDTQCSLAGVGIEMGDWQEVWDENTGCYYYWNTQTNEVTWELPQYLATQVQGLQHYEP [Q61E] is higher in abundance fitness: -0.266 ± 0.12 for the first, 0.065 ± 0.08 for the second.

SGWQYDTQCSLAGVGIEMGDWQEVWDENTGCYYYWNTQTNEVTWELPQYLATQVQGLQHYNP [Q61N] and SGWQYDTQCSLAGVGIEMGDWQEVWDENTGCYYYWNTQTNEVTWELPQYLATQVQGLQHYSP [Q61S] are within error of each other in abundance fitness: -0.108 ± 0.15 for the first, -0.083 ± 0.069 for the second.

SGWQYDTQCSLAGVGIEMGDWQEVWDENTGCYYYWNTQTNEVTWELPQYLATQVQGLQHYPP [Q61P] and SGWQYDTQCSLAGVGIEMGDWQEVWDENTGCYYYWNTQTNEVTWELPQYLATQVQGLQHYLP [Q61L] are within error of each other in abundance fitness: -0.201 ± 0.1 for the first, -0.132 ± 0.054 for the second.

Compared with SGWQYDTQCSLAGVGIEMGDWQEVWDENTGCYYYWNTQTNEVTWELPQYLATQVQGLQHYFP [Q61F], SGWQYDTQCSLAGVGIEMGDWQEVWDENTGCYYYWNTQTNEVTWELPQYLATQVQGLQHYTP [Q61T] is higher in abundance fitness: -0.263 ± 0.1 for the first, 0.263 ± 0.086 for the second.

First: SGWQYDTQCSLAGVGIEMGDWQEVWDENTGCYYYWNTQTNEVTWELPQYLATQVQGLQHWQP [Y60W]
Second: SGWQYDTQCSLAGVGIEMGDWQEVWDENTGCYYYWNTQTNEVTWELPQYLATQVQGLQHTQP [Y60T]
The abundance fitness of the first is lower: -0.068 ± 0.081 for the first, 0.101 ± 0.081 for the second.

SGWQYDTQCSLAGVGIEMGDWQEVWDENTGCYYYWNTQTNEVTWELPQYLATQVQGLQHKQP [Y60K] and SGWQYDTQCSLAGVGIEMGDWQEVWDENTGCYYYWNTQTNEVTWELPQYLATQVQGLQHEQP [Y60E] are within error of each other in abundance fitness: 0.038 ± 0.099 for the first, 0.117 ± 0.085 for the second.

SGWQYDTQCSLAGVGIEMGDWQEVWDENTGCYYYWNTQTNEVTWELPQYLATQVQGLQHLQP [Y60L] and SGWQYDTQCSLAGVGIEMGDWQEVWDENTGCYYYWNTQTNEVTWELPQYLATQVQGLQHRQP [Y60R] are within error of each other in abundance fitness: 0.086 ± 0.057 for the first, 0.112 ± 0.054 for the second.

SGWQYDTQCSLAGVGIEMGDWQEVWDENTGCYYYWNTQTNEVTWELPQYLATQVQGLQHVQP [Y60V] and SGWQYDTQCSLAGVGIEMGDWQEVWDENTGCYYYWNTQTNEVTWELPQYLATQVQGLQHIQP [Y60I] are within error of each other in abundance fitness: 0.099 ± 0.057 for the first, 0.153 ± 0.092 for the second.

SGWQYDTQCSLAGVGIEMGDWQEVWDENTGCYYYWNTQTNEVTWELPQYLATQVQGLQHSQP [Y60S] and SGWQYDTQCSLAGVGIEMGDWQEVWDENTGCYYYWNTQTNEVTWELPQYLATQVQGLQHGQP [Y60G] are within error of each other in abundance fitness: 0.066 ± 0.062 for the first, 0.103 ± 0.058 for the second.

SGWQYDTQCSLAGVGIEMGDWQEVWDENTGCYYYWNTQTNEVTWELPQYLATQVQGLQHNQP [Y60N] and SGWQYDTQCSLAGVGIEMGDWQEVWDENTGCYYYWNTQTNEVTWELPQYLATQVQGLQHFQP [Y60F] are within error of each other in abundance fitness: 0.01 ± 0.13 for the first, 0.124 ± 0.087 for the second.

SGWQYDTQCSLAGVGIEMGDWQEVWDENTGCYYYWNTQTNEVTWELPQYLATQVQGLQHPQP [Y60P] and SGWQYDTQCSLAGVGIEMGDWQEVWDENTGCYYYWNTQTNEVTWELPQYLATQVQGLQHQQP [Y60Q] are within error of each other in abundance fitness: 0.113 ± 0.09 for the first, 0.123 ± 0.12 for the second.

SGWQYDTQCSLAGVGIEMGDWQEVWDENTGCYYYWNTQTNEVTWELPQYLATQVQGLQHMQP [Y60M] and SGWQYDTQCSLAGVGIEMGDWQEVWDENTGCYYYWNTQTNEVTWELPQYLATQVQGLQHHQP [Y60H] are within error of each other in abundance fitness: 0.177 ± 0.081 for the first, 0.092 ± 0.099 for the second.

In the case of SGWQYDTQCSLAGVGIEMGDWQEVWDENTGCYYYWNTQTNEVTWELPQYLATQVQGLQHDQP [Y60D], the abundance fitness is reported as 0.19 ± 0.1.
